Results reported in patent publication US20140335077A1, “Compositions and Methods for the Treatment of Cancer Using IGF-IR Antagonists and MAPK/ERK Inhibitors” (priority 2013, published 2014).

Columns and labels:
Type in all cases: cell-based
SKMel28 = experiment: PrestoBlue cell viability, anti-IGF-1R antibody with U0126, SKMel28 (melanoma); details: 48 h
Description: (§1) Cells were incubated in 96 well tissue culture plates and cell viability was measured by PrestoBlue cell viability assay (Invitrogen, CA, USA) according to manufacturer's instructions. Fluorescence was measured with excitation at 560 nm and emission at 590 nm. Cell number was calculated from standard curves of fluorescence measurements from known numbers of cells. Triplicate cultures were performed on all experiments.
(§2) The effects of anti-IGF-1R antibodies/MEK inhibitor combination treatment on viability of different types of tumor cells were investigated using PrestoBlue cell viability assay (Invitrogen, CA, USA) according to manufacturer's instructions. (Table 3).
(§3) Cells were incubated in serum free medium for 12 h followed by pretreatment for 60 min without or with 0.5, 1, 3 or 5 μM of the ERK inhibitor U0126, and then treated without or with 100 ng/ml anti-IGF-1R antibodies (Figitumumab or αIR-3 (Calbiochem, US). Cells were incubated in 96 well tissue culture plates for 48 hours and cell viability was measured by PrestoBlue cell viability assay. Fluorescence was measured with excitation at 560 nm and emission at 590 nm. Cell number was calculated from standard curves of fluorescence measurements from known numbers of cells. Triplicate cultures were performed on all experiments. The inhibition induced by anti-IGF-1R antibodies treated cells was calculated as percentage of untreated cells.

HEPG2 = experiment: PrestoBlue cell viability, anti-IGF-1R antibody with U0126, HEPG2 (hepatic carcinoma); details: 48 h
Description: as §1, §2, §3

OMM 2.5 = experiment: PrestoBlue cell viability, anti-IGF-1R antibody with U0126, OMM 2.5 (liver metastasis of uveal melanoma); details: OMM 2.5 cells, 48 h
Description: as §1, §2, §3

Colo 205 = experiment: PrestoBlue cell viability, anti-IGF-1R antibody with U0126, Colo 205 (colon carcinoma); details: Colo 205 cells, 48 h
Description: as §1, §2, §3

PC-3 = experiment: PrestoBlue cell viability, anti-IGF-1R antibody with U0126, PC-3 (prostate carcinoma); details: PC-3 cells, 48 h
Description: as §1, §2, §3

OCM-1 = experiment: PrestoBlue cell viability, anti-IGF-1R antibody with U0126, OCM-1 (uveal melanoma); details: OCM-1 cells, 48 h
Description: as §1, §2, §3

[1] = system: SKBR3 and IGF-1R knockout MEF cells (R−); experiment: Cell viability of negative control cells (PrestoBlue); details: 100 ng/ml, 48 h
Description: FIG. 1A-FIG. 1C. Effects of Figitumumab (CP-751871 (CP)) treatment on cell viability in ES cell lines. (A) Cell lysates were prepared from the indicated cell lines and analyzed by WB for total IGF-1R expression and GAPDH as a loading control. […] Data correspond to the mean±SEM from three independent experiments. […] (C) Indicated cells were treated without and with 100 ng/ml CP for 48 h in the absence (SFM) or presence of 10% fetal bovine serum (Serum) and cell viability assayed by PrestoBlue reagent. […] Data correspond to the mean±SEM from three independent experiments. Statistical analysis compared with SKBR3: *P<0.05, **P<0.01, **P<0.001.
as §1
IGF-1R expression was investigated in a panel of validated Ewing's sarcoma (ES) cell lines: SKES, RDES, CADO, A673 and SKNMC. Breast cancer cell line SKBR3, expressing low IGF-1R levels and IGF-1R knockout MEF cells (R−) were used as negative controls. […]

IGF-1R = target: T1, IGF-1R (Homo sapiens, UniProt P08069); experiment: IGF-1R ubiquitination in ES cells (immunoprecipitation, WB); details: 10 min stimulation, serum starved ES cells; all investigated cell lines
T1 construct: all the ES cell lines tested expressed IGF-1R; endogenous in cells; host or cells: Ewing's sarcoma cell lines SKES, RDES, CADO, A673, SKNMC
Description: (§4) FIG. 2A-FIG. 2D. Mechanism of CP induced IGF-1R downregulation: β-arrestin1 recruitment and receptor ubiquitination. (A) Cells incubated in serum free medium for 12 h were treated with 0, 0.1 or 1 μg/ml CP for 24 h. Protein lysates were analyzed by WB for IGF-1R and GAPDH as a loading control. […] Protein lysates were analyzed by WB for IGF-1R and GAPDH as a loading control. Signals were quantified by densitometry, normalized to GAPDH and expressed as a percentage of the IGF-1R at 0 h. Data correspond to the mean±SEM from three independent experiments. […] IGF-1R was immunoprecipitated from lysates and analyzed by WB (IB) for ubiquitination (Ub) and IGF-1R as a loading control. Molecular weight markers in KDa are indicated to the left of the panels. (D) β-Arrestin1 (β-arr1) was immunoprecipitated from cell lysates prepared as for (C). Immunoprecipitated proteins were analyzed by WB for IGF-1R. The whole lysates were analyzed by WB for GAPDH as a loading control.
(§5) Cells were lysed with 500 μl lysis buffer (110 mM KOAc, 0.5% (v/v) Triton X-100, 100 mM NaCl, protease inhibitor cocktail tablet (Roche), buffering salts pH 7.4). 500 μg of protein was incubated with Dynabeads protein G (10 μl) (Invitrogen, CA, USA) and 1 μg antibody overnight at 4° C. on a rotator platform. […]
(§6) These trends were confirmed by densitometric quantification of multiple experiments (FIG. 2B, graphs). […]

[2] = target: T2, IGF-1R/β-arr1 association (Homo sapiens, UniProt P08069); experiment: β-arrestin1 recruitment to IGF-1R in ES cell lines (immunoprecipitation, WB); details: 10 min stimulation; all ES cell lines
T2 construct: endogenous in cells; host or cells: Ewing's sarcoma cell lines
Description: as §4, §5, §6

[3] = U0126 0 μM (60 min pretreatment)
[4] = U0126 0.5 μM (60 min pretreatment)
[5] = U0126 1 μM (60 min pretreatment)
[6] = U0126 3 μM (60 min pretreatment)
[7] = U0126 5 μM (60 min pretreatment)

B1: CP-751,871: anti-IGF-1R antibody figitumumab (Pfizer), IGF-1R antagonist (antibody, chains of the INN, looked up)
heavy: EVQLLESGGGLVQPGGSLRLSCTASGFTFSSYAMNWVRQAPGKGLEWVSAISGSGGTTFYADSVKGRFTISRDNSRTTLYLQMNSLRAEDTAVYYCAKDLGWSDSYYYYYGMDVWGQGTTVTVSSASTKGPSVFPLAPCSRSTSESTAALGCLVKDYFPEPVTVSWNSGALTSGVHTFPAVLQSSGLYSLSSVVTVPSSNFGTQTYTCNVDHKPSNTKVDKTVERKCCVECPPCPAPPVAGPSVFLFPPKPKDTLMISRTPEVTCVVVDVSHEDPEVQFNWYVDGVEVHNAKTKPREEQFNSTFRVVSVLTVVHQDWLNGKEYKCKVSNKGLPAPIEKTISKTKGQPREPQVYTLPPSREEMTKNQVSLTCLVKGFYPSDIAVEWESNGQPENNYKTTPPMLDSDGSFFLYSKLTVDKSRWQQGNVFSCSVMHEALHNHYTQKSLSLSPG
light: DIQMTQFPSSLSASVGDRVTITCRASQGIRNDLGWYQQKPGKAPKRLIYAASRLHRGVPSRFSGSGSGTEFTLTISSLQPEDFATYYCLQHNSYPCSFGQGTKLEIKRTVAAPSVFIFPPSDEQLKSGTASVVCLLNNFYPREAKVQWKVDNALQSGNSQESVTEQDSKDSTYSLSSTLTLSKADYEKHKVYACEVTHQGLSSPVTKSFNRGEC
SKMel28; [3]
  Percentage inhibition of antibody treated cells (100 ng/ml): 5%
SKMel28; [4]
  Percentage inhibition of antibody treated cells (100 ng/ml): 15%
SKMel28; [5]
  Percentage inhibition of antibody treated cells (100 ng/ml): 17%
SKMel28; [6]
  Percentage inhibition of antibody treated cells (100 ng/ml): 25%
SKMel28; [7]
  Percentage inhibition of antibody treated cells (100 ng/ml): 29%
HEPG2; [3]
  Percentage inhibition of antibody treated cells (100 ng/ml): 7%
HEPG2; [4]
  Percentage inhibition of antibody treated cells (100 ng/ml): 11%
HEPG2; [5]
  Percentage inhibition of antibody treated cells (100 ng/ml): 22%
HEPG2; [6]
  Percentage inhibition of antibody treated cells (100 ng/ml): 27%
HEPG2; [7]
  Percentage inhibition of antibody treated cells (100 ng/ml): 37%
OMM 2.5; [3]
  Percentage inhibition of antibody treated cells (100 ng/ml): 7%
OMM 2.5; [4]
  Percentage inhibition of antibody treated cells (100 ng/ml): 33%
OMM 2.5; [5]
  Percentage inhibition of antibody treated cells (100 ng/ml): 65%
OMM 2.5; [6]
  Percentage inhibition of antibody treated cells (100 ng/ml): 87%
OMM 2.5; [7]
  Percentage inhibition of antibody treated cells (100 ng/ml): 89%
Colo 205; [3]
  Percentage inhibition of antibody treated cells (100 ng/ml): 21%
Colo 205; [4]
  Percentage inhibition of antibody treated cells (100 ng/ml): 28%
Colo 205; [5]
  Percentage inhibition of antibody treated cells (100 ng/ml): 34%
Colo 205; [6]
  Percentage inhibition of antibody treated cells (100 ng/ml): 45%
Colo 205; [7]
  Percentage inhibition of antibody treated cells (100 ng/ml): 67%
PC-3; [3]
  Percentage inhibition of antibody treated cells (100 ng/ml): 22%
PC-3; [4]
  Percentage inhibition of antibody treated cells (100 ng/ml): 24%
PC-3; [5]
  Percentage inhibition of antibody treated cells (100 ng/ml): 32%
PC-3; [6]
  Percentage inhibition of antibody treated cells (100 ng/ml): 45%
PC-3; [7]
  Percentage inhibition of antibody treated cells (100 ng/ml): 52%
OCM-1; [3]
  Percentage inhibition of antibody treated cells (100 ng/ml): 22%
OCM-1; [4]
  Percentage inhibition of antibody treated cells (100 ng/ml): 28%
OCM-1; [5]
  Percentage inhibition of antibody treated cells (100 ng/ml): 35%
OCM-1; [6]
  Percentage inhibition of antibody treated cells (100 ng/ml): 46%
OCM-1; [7]
  Percentage inhibition of antibody treated cells (100 ng/ml): 55%
[1]
  Cell viability of negative control cells: unaffected
IGF-1R
  IGF-1R ubiquitination compared with IGF-1: more potent in generating receptor ubiquitination
[2]
  β-arr1 recruitment to the receptor compared with IGF-1: much more potent than IGF-1 in recruiting β-arr1
